Results on 1 substance are retold here after US20170051047A1.

The target in experiment [1] is Clostridium difficile toxin A (whole toxin A) (Clostridium difficile) (UniProt P16154).
Experiment [2] shares this target. The experiment is described as follows: cell-based or functional assay.

With “CDA1 (Merck anti-toxin A mAb used as a control) (antibody)”, in experiment [1], the Kd (usually a measure of binding affinity in units of concentration) came to 0.624 nM; the dissociation rate constant (koff) (in general, a measure of how fast the partners let go of each other) worked out at 0.000291 s⁻¹; the association rate constant (kon) – broadly, the second-order rate constant of association – came to 480000 M⁻¹ s⁻¹. The substance further came in with an IC50, in vitro toxin A neutralization on Vero cells in experiment [2] of 0.347 µg/mL.
